Test system: GST-Ras [GST: P08515]
Sequence (P08515 whole entry, looked up): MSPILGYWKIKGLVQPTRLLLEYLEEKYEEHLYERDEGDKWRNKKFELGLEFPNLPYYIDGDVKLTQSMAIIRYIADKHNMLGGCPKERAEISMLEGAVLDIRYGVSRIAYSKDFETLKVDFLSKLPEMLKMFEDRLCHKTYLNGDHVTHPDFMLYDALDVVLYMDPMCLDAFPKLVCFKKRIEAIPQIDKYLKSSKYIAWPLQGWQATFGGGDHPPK

## Flag-tagged full-length RasGRF2
  fold Ras activation in vitro (bound 32P-GTP, against Ras without GRFs set to 1): the 4.5 fold activation conferred by GRF2, used as a control
